# Measurements taken from the nanobody polyreactivity screen of Harvey et al. (2022).
# Assay: yeast display, Sf9 membrane polyspecificity reagent, FACS + sequencing; frameworks hold sequencing errors
# How it was run: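 Genes from sorted yeast were amplified by colony PCR, read by MiSeq 2 × 250 sequencing and filtered on CDR length. These cells carried a synthetic nanobody library in Saccharomyces cerevisiae BJ5465 and were sorted by FACS into low and high (top ~1%) gates on anti-HA and streptavidin fluorescence. Polyreactivity is labelled according to the gate of origin.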
row,Sequence,polyreactivity (PSR sort gate)
1,QVQLVESGGGLVQAGGSLRLSCAASGSTFDGNTMGWYRQAPGKERELVAAISGSGGSTYYADSVKGRFTISRDNAKKTVYLQMNSLKPEDTAVYYCAARRIHTTSSRGYYWGQGTQVTVSS,high polyreactivity
2,QVQLVESGGGLVQAGGSLRLSCAASGNTFYANTMGWYRQARTERELVAAITSGTYADSVKGRFTISRDNAKNTVYLQMNSLKPEDTAVYYCAREESLYVTDPGPSKLDYWGQGTQVTVSS,low polyreactivity
3,QVQLVESGGGLVQAGGRLRLRCAACGFTFARYAMGRSSQAPGKERELLAAITWSAGSTYYADSVKGRFTISRDTGKNTVFLQMTRLKPEDTAVYYCNALVIARNIEMDYWGQGTQVTVSS,high polyreactivity
4,QVQLVESGGGLVQAGGSLRLSCAASGFIFRTYAMGWYRQAPGKERELVATITGDGSTNYADSVKGRFTISRDNAKNTVYLQMNSLKPEDTAVYYCSRDDRLAGDYWGQGTQVTVSS,low polyreactivity
5,QVQLVESGGGLVQAGGSLRLSCAASGSIFYSYGMGWYRQAPGKERELVAAITSSGGGTYYADSVKGRFTISRDNAKNTVYLQMNSLKPEDTAVYYCAADDRNYNYYPTFYYWGQGTQVTVSS,low polyreactivity
6,QVQLVESGGGLVQAGGSLRLSCAASGRTFRRYVMGWDRQSPGKERQLVAAIRWTGGSTYYADSVKGRFTISRDNAKNTVYLKMNSLKPEDTEVYYCAAYIRWSGGFDYWGQGTQVTVSS,high polyreactivity
7,QVQLVESGGGLVQAGGSLRLTCAASGRIFAPKAMGWYRQAPGKERELVAGISSGGSTNYADSVKGRFTISRDNAKNTVYLQMNSLTPEDSAVYYCATGSYSYHRGYVTYARYGYWGQGTLVTVSS,low polyreactivity
8,QVQLVESGGGLVQAGGSLRLSCAASGRIFTFYAMGWYRQAPGKERELVARISKRGGSTYYADSVKGRFTISRDYAKNTVYLQRNSLKPEDTAVYYCAKAYDPTTYDYWGQGTQVTVSS,high polyreactivity
9,QVQLVESGGGLVQAGGSLRLSCAASGSIFGYYTMGWYRKAPGKERELVAAITSGGSTNYADSVKGRFTISRDNAKNTVYLQMNSLKPEDTAVYYCAKVSYYPWRYDYWGQGTQVTVSS,low polyreactivity
10,QVQLVESGGGLVQAGGSLRLSCAASGRILSGNAMGWYRQAPGKERELVAAITNAGITKYADSVKGRFTISRDNAKNTVYLQMNSLKPEDTAVYYCATDRYAYKLYDYWGQGTQVTVSS,low polyreactivity
11,QVQLVESGGGLVQAGGSLRLSCAASGSIFDAYMGWYRQAPGKERELVAGITRSGGSTYYADSVKGRFTISRDNAKNSVYLQMNSLKPEDTAVYYCAADYSSDGDYWGQGTQVTVSS,low polyreactivity
12,QVQLVESGGCLVQAGGSLRLSCAASGHIFTFYAMGWYRQAPGKERELVATIRWSGGSTYYADSVKGRFTISRDNAKNTVYLQMNSLKPEDTAVYYCAATYYPSSYVQRLDYWGQGTQVTVSS,low polyreactivity
13,QVQLVESGRGLVQAGGSLRLSCAASGFIFHRYAMGWYRQAPGKERELFAAITRTGGRTYYADSVKGRFTISRDNAKNTVYLQMNSLKPEDTEVYYCAAVRTLSYEYWGQGTKVTVSS,high polyreactivity
14,QVQLVESGGGLVQAGGSLRLICAASGFIFNSNAMGWYRQAPGKERELVAAISGRGGSTYYADSVKGRVTISRDNAKNTVYLQMNSLKPEDTAVYYCAAKLRPRYYVSGYDYWGQGTQVTVSS,high polyreactivity
15,QVQLVESGGGLVQAGGSLRLSCAASGSIFYSNVMGWYRQAPGKERELVARITDAGSTNYADSVKGRFTISRDNAKNTVYLQMNSLKPEDTAVYYCNARLVIYTYDYWGQGTQVTVSS,low polyreactivity
16,QVQLVESGGGLVQAGGSLRLSSAASGRIFAYNAMGWYRQAPGKEREFVAAITLGTGRTYYADSVKGRFTISRDNAKNTDYLQMNSLKAEDTAVYYCAARRVRGDVDYWYIYDYWGQGTQVTVSS,high polyreactivity
17,QVQLVESGGGLVQAGGSLRLSCAASGSIIFGYGMGWYRQAPGKERELVATITTSGGTYYADSVKGRFTISRDNAKNSVYLQMNSLKPEDTAVYYCAATAAALDGNTIMYYWGQGTQVTVSS,low polyreactivity
18,QVQLVESGGGLVQAGGSLRLSCAASGLSFGIYAIGWYRKAPGKERELVAAISRSGGSTYYADSVKGRFTISRDNAKNTVYLQMNSLKPEDTAVYYCAAPYYVGYDYWGQGTQVTVSS,high polyreactivity
19,QVQLVESGGGLVQAGGSLRLSCAASGRIYGKYAMGWSRQAPGKERELVASISYSGGSTYYADSVKGRFTISRDNAKNTVYLHMISLKPEDTAVYYCAARKWRYGRYVYWGQGTQVTVSS,high polyreactivity
20,QVQLVESGGGLVQAGGSLRLSCDASGITFASYAMGWYRQAPGKERELVAAISWGGSRTYYADSVKGRFTISRDNAKNTVYFQMNSLKPVDTAVYYCNAHTRYGPDYSYYYWGQGTQVTVSS,high polyreactivity
21,QVQLVESGGGLVQAGGSLRLSCAASGSISDWNAMGWYRQAPGKERELVAAINWSGDTTYYADSVKGRFTISRDTAKNTVYLQMNSLKPEDTAVYYCAADLVVDYEWYDYWGQGTQVTVSS,high polyreactivity
22,QVQLVESGGGLVQAGGSLRLICAASGFTFYLYTMGWYRPAPGKERELVASIRRSGGSTYYADSVKGRFTISRDNAKNTVYLQMNSLKPEDTAVYYCAKRTFLVSGPRSYGWYGVYYWGQGTQVTVSS,high polyreactivity
23,QVQLVESGGGLVQAGGSLRISCAASGITFYRYAMGWYRQAPGKEREFVAAINYGGSSTRYADSVKGRFTISRDNAKITVYLQMNSLKPEDTAVYYCAKVELARVEYDYWGQGTQVTVSS,low polyreactivity
24,QVQLVESGGGLVQAGGSLSLICAASGFIYYTMGWYRQAPGKEWELVAAISRSGGSTYYADSVKGRFTISRDNAKNTVYLQMNSLKPEDTAVYYCAARRPYRDGYDYWGQGTQVTVSS,high polyreactivity
25,QDQLVESGGGLVQAGGSLRLSCAASGRIFVHNAMGWYRQAPGKERELVAAIYQNGGRTYYADSVKGRFTISRDNAMNTVYLQMNSLKPEDTAVYYCAAGQARAGLIGGYWGQGTQVTVSS,high polyreactivity
26,QVQLVESGGGLVQAGVSLRLSCAASGRIFAVNAMGWYRQAPGKERELVASIRWSGGSTYYADSVKGRFTISRDYAKNTVYLQMNSLKPEETAVYYCAAVIYLWGQGTQVTVSS,high polyreactivity
27,QVQLVESGGGLVQAGGSLRLSCAASGSIFTPNVMGWYRHAPGKERELVAAISQSGGSTFYADSVKGRFTISRDNAKNTVYLQMNSLKPEDTAVYYCNVDDNSEYDYWGQGSQVTVSS,low polyreactivity
28,QVQLVESGGGLVQAGGSLRLSCAASGRIFVSNAMGWYRQAPGKERELVASISWSGGSTYYADSVKGRFTISRDNAKNTVYLQMNSLKPEDTAVYYCNRVRYPRQGFRLYYWGQGTQVTVSS,high polyreactivity
29,QVQLVESGGGLVQAGGSLRLSCAASGSTFDPYAMGWYRQAPGKERELVATITYSGGRTYYADSVKGRFTISRDNAKNTVYLQMNSLKPEDTAVYYCAARVYTHYREFDYWGQGTQVTVSS,low polyreactivity
30,QVQLVESGGGLVQAGCSLRLSSAASGFTFAYYVMGWYRQAPGKERELVAAISISGGRTYYADSVKGRFTISRDNEKNSVYLQMNRLKPEETAVYYCAADRRTDGHDYWGQGSQVTVSS,high polyreactivity
